Our source for the Tm values is FireProtDB (doi:10.1021/bi9929958).

For the data set the following is noted: Homo sapiens; pH 7.8; Thermal; DSC; Potassium phosphate 20 mM; reversible: yes; whole UniProt chain shown.

B1: Superoxide dismutase [Mn], mitochondrial wild type, P04179 (protein)
chain: MLSRAVCGTSRQLAPVLGYLGSRQKHSLPDLPYDYGALEPHINAQIMQLHHSKHHAAYVNNLNVTEEKYQEALAKGDVTAQIALQPALKFNGGGHINHSIFWTNLSPNGGGEPKGELLEAIKRDFGSFDKFKEKLTAASVGVQGSGWGWLGFNKERGHLQIAACPNQDPLQGTTGLIPLLGIDVWEHAYYLQYKNVRPDYLKAIWNVINWENVTERYMACKK
One may read the Tm as the temperature at the midpoint of the melting transition. As to B1, the melting temperature (Tm) is 88.9 °C.
